Data reported in US20150246949A1, “Desmoglein 2 (DSG2) Binding Proteins and Uses Therefor” (UNIVERSITY OF WASHINGTON THROUGH ITS CENTER FOR …, priority 2012, published 2015).
Entries after “also recorded” stand apart in the source; their conditions may differ.

Experiments:
soluble CD46 = biological target: T1, soluble CD46 (UniProt P15529 35-343); assay: Western blot, soluble CD46 as probe, anti-CD46 mAb
T1 construct: also called sCD46
T1 sequence: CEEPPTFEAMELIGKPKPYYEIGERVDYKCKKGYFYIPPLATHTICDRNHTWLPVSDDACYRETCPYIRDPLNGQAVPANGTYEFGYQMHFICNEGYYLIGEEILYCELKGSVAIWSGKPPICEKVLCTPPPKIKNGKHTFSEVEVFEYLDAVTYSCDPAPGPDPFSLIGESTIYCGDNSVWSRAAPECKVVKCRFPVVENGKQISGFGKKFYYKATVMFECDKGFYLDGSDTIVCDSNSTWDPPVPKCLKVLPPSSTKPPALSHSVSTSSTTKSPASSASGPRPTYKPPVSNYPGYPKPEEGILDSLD

[1] = tested on: polarized colon cancer T84 cells; assay: Transepithelial electrical resistance (TEER) permeability assay; type: cell-based; settings: for Effect on TEER: 5 μg dimeric Ad3 fiber knob added 1 hour to apical chamber; for TEER compared to JO-1: dimeric affinity-enhanced mutants, TEER at 4 hours, N=3
Procedure: (§1) FIG. 5. Correlation of reduced DSG2 binding with the ability to open epithelial junctions. A) Transepithelial electrical resistance (TEER) measured on polarized colon cancer T84 cells. Cells were cultured in transwell chambers until the TEER was constant, i.e. tight junctions had formed. A total of 5 μg of dimeric Ad3 fiber knobs in PBS was then added for 1 hour to the apical chamber. TEER was measured at the indicated time points. N=6. For time points 1.5 and 4 hours the difference between JO-1 vs D261N and N186D was significant (p<0.01). The arrows indicate the addition and removal of Ad3 fiber knobs. B) Enhancement of irinotecan therapy. A total of 4×10^6 A549 cells were injected subcutaneously into CB17-SCID/beige mice. Once the tumor reached a volume of ˜100 mm^3 (day 15 after implantation), the mice were injected intravenously with 2 mg/kg JO-1, E299V, N186D, or PBS, followed by an intravenous injection of irinotecan (37.5 mg/kg) one hour later. The treatment was repeated on day 25. N=5. […] The difference between “irinotecan” vs “JO-1+irinotecan” was significant (p<0.01) from day 20 on.
FIG. 9. Analysis of dimeric Ad3 fiber knob mutants with increased affinity to DSG2. A) Competition of Ad3-GFP virus infection on HeLa cells with dimeric affinity-enhanced mutant Y250F and JO-1 (dimeric wt Ad3 fiber knob). The experimental setting is as described for FIG. 3C. left panel: percentage of GFP positive cells. Right panel: mean fluorescence intensity. N=3. The standard deviation was less than 10%. B) Competition of Ad3-GFP virus infection on HeLa cells by Ad3 knob mutants with enhanced DSG2 binding but without dimerization domain. 1.5×10^5 HeLa cells were seeded into 24 well plates. Cells were incubated with the Ad3 knob mutants at the increasing concentrations for one hour at room temperature. 100 pfu/cell of Ad3GFP virus were then added and GFP expression was analyzed 18 hours later. C) TEER on colon cancer T84 cells. The experimental setting was the same as for FIG. 5A. The TEER at 4 hours is shown. N=3.
A total of 5×10^5 T84 cells were seeded in 12 mm transwell inserts (PET membrane, with 0.4 μm pore size (Corning, N.Y.) and cultured for >14 days until transepithelial electrical resistance (TEER) was stable. Culture medium was changed every 2-3 days. The cells were exposed to DSG2 ligands (20 μg/ml) in adhesion medium (DMEM, 1% FBS, 2 mM MgCl2, 20 mM HEPES) for 15 min at room temperature and TEER was measured and calculated as described elsewhere (39).

A549 xenograft tumors = assay: Enhancement of irinotecan therapy in A549 xenograft tumors; type: in vivo, CB17-SCID/beige mice; settings: 2 mg/kg i.v. one hour before irinotecan 37.5 mg/kg i.v.; days 15 and 25; N=5
Procedure: as §1
FIG. 10. Combination of affinity-enhanced JO-1 versions with chemotherapy. A) Enhancement of irinotecan (I) therapy. The experimental setting was the same as in FIG. 5B. […] N=5. […] Mammary fat pad tumors were established from primary ovarian cancer ovc316 cells. Treatment was started when tumors reached a volume of 100 mm^3 Mice were injected intravenously with 2 mg/kg JO-1 or with 0.5 mg/kg JO-4, followed by an intravenous injection of PEGylated liposomal doxorubicin (PLD) (1 mg/kg) one hour later. Treatment was repeated weekly. […] A total of 4×10^6 TNBC MDA-MB-231 cells were injected into the mammary fat pad of CB17 SCID-beige mice. JO-4 (2 mg/kg) was intravenously injected 1 hour before the application of cetuximab (C) (10 mg/kg, i.p.) and nab-paclitaxel (nab-P) (5 mg/kg, i.v). Treatment was given weekly. N=10 P<0.01 at day 25 for nab-P+C vs JO-4+nab-P+C.
A549, MDA-MB-231, and ovc316 xenograft tumors were established by injection of the corresponding tumor cells into the mammary fat pad (1:1 with Matrigel) of CB17 mice. TC1-DSG2 tumors were established by subcutaneous injection of TC1-DSG2 cells into DSG2 transgenic mice. JO-0, JO-1, JO-2, or JO-4 were intravenously injected one hour before the application of chemotherapeutic drugs: Irinotecan/Camptosar™ (Pfizer Inc., Groton, Conn.), PEGylated liposomal doxorubicin/Lipodox™ (Sun Pharmaceuticals IN, India), cetuximab/Erbitux™ (ImClone, Somerville, N.J.), nanoparticle albumin conjugated paclitaxel/Abraxane™ (Abraxis Biosciences, Summit N.J.). Tumor volumes were measured three times a week. Each treatment group consisted of a minimum of 5 mice.

B1: Ad3-S6/Kn (ligand)
chain: GVLSLKCVNPLTTASGSLQLKVGSGLTVDTTDGSLEENIKVNTPLTKSNHSINLPIGNGLQIEQNKLCSKLGNGLTFDSSNSIALKNNTLWTGPKPEANCIIEYGKQNPDSKLTLILVKNGGIVNGYVTLMGASDYVNTLFKNKNVSINVELYFDATGHILPDSSSLKTDLELKYKQTADFSARGFMPSTTAYPFVLPNAGTHNENYIFGQCYYKASDGALFPLEVTVMLNKRLPDSRTSYVMTFLWSLNAGLAPETTQATLITSPFTFSYIREDD
notes: also called wild-type Ad3 fibers
B1: no binding (soluble CD46).

B2: Ad3-S3/Kn (ligand)
chain: HSINLPIGNGLQIEQNKLCSKLGNGLTFDSSNSIALKNNTLWTGPKPEANCIIEYGKQNPDSKLTLILVKNGGIVNGYVTLMGASDYVNTLFKNKNVSINVELYFDATGHILPDSSSLKTDLELKYKQTADFSARGFMPSTTAYPFVLPNAGTHNENYIFGQCYYKASDGALFPLEVTVMLNKRLPDSRTSYVMTFLWSLNAGLAPETTQATLITSPFTFSYIREDD
notes: as for B1
B2: no binding (soluble CD46).

B3: Ad3-S2/Kn (ligand)
chain: KLCSKLGNGLTFDSSNSIALKNNTLWTGPKPEANCIIEYGKQNPDSKLTLILVKNGGIVNGYVTLMGASDYVNTLFKNKNVSINVELYFDATGHILPDSSSLKTDLELKYKQTADFSARGFMPSTTAYPFVLPNAGTHNENYIFGQCYYKASDGALFPLEVTVMLNKRLPDSRTSYVMTFLWSLNAGLAPETTQATLITSPFTFSYIREDD
notes: as for B1
B3: no binding (soluble CD46).

B4: Ad3-S5/Kn (ligand)
chain: GSLQLKVGSGLTVDTTDGSLEENIKVNTPLTKSNHSINLPIGNGLQIEQNKLCSKLGNGLTFDSSNSIALKNNTLWTGPKPEANCIIEYGKQNPDSKLTLILVKNGGIVNGYVTLMGASDYVNTLFKNKNVSINVELYFDATGHILPDSSSLKTDLELKYKQTADFSARGFMPSTTAYPFVLPNAGTHNENYIFGQCYYKASDGALFPLEVTVMLNKRLPDSRTSYVMTFLWSLNAGLAPETTQATLITSPFTFSYIREDD
notes: as for B1
B4: no binding (soluble CD46).

B5: Ad3-S4/Kn (ligand)
chain: GSLEENIKVNTPLTKSNHSINLPIGNGLQIEQNKLCSKLGNGLTFDSSNSIALKNNTLWTGPKPEANCIIEYGKQNPDSKLTLILVKNGGIVNGYVTLMGASDYVNTLFKNKNVSINVELYFDATGHILPDSSSLKTDLELKYKQTADFSARGFMPSTTAYPFVLPNAGTHNENYIFGQCYYKASDGALFPLEVTVMLNKRLPDSRTSYVMTFLWSLNAGLAPETTQATLITSPFTFSYIREDD
notes: as for B1
B5: no binding (soluble CD46).

B6: N186D (protein)
chain: MKVSALKEKVSALKEKVSALKEKVSALKEKVSALKEGSGGGSGGGSGGGSNSIALKNNTLWTGPKPEANCIIEYGKQNPDSKLTLILVKNGGIVNGYVTLMGASDYVNTLFKDKNVSINVELYFDATGHILPDSSSLKTDLELKYKQTADFSARGFMPSTTAYPFVLPNAGTHNENYIFGQCYYKASDGALFPLEVTVMLNKRLPDSRTSYVMTFLWSLNAGLAPETTQATLITSPFTFSYIREDD
B6 was tested, and the “Effect on TEER” value [1] was “intermediate effects” and the “Enhancement of irinotecan therapy” value (A549 xenograft tumors) was “not significant”.

B7: E299V (protein)
chain: MKVSALKEKVSALKEKVSALKEKVSALKEKVSALKEGSGGGSGGGSGGGSNSIALKNNTLWTGPKPEANCIIEYGKQNPDSKLTLILVKNGGIVNGYVTLMGASDYVNTLFKNKNVSINVELYFDATGHILPDSSSLKTDLELKYKQTADFSARGFMPSTTAYPFVLPNAGTHNENYIFGQCYYKASDGALFPLEVTVMLNKRLPDSRTSYVMTFLWSLNAGLAPVTTQATLITSPFTFSYIREDD
For B7, the “Effect on TEER” value [1] was “intermediate effects” and the “Enhancement of irinotecan therapy” value (A549 xenograft tumors) was “not significant”.

B8: K217E+F224S (protein)
chain: MKVSALKEKVSALKEKVSALKEKVSALKEKVSALKEGSGGGSGGGSGGGSNSIALKNNTLWTGPKPEANCIIEYGKQNPDSKLTLILVKNGGIVNGYVTLMGASDYVNTLFKNKNVSINVELYFDATGHILPDSSSLKTDLELEYKQTADSSARGFMPSTTAYPFVLPNAGTHNENYIFGQCYYKASDGALFPLEVTVMLNKRLPDSRTSYVMTFLWSLNAGLAPETTQATLITSPFTFSYIREDD
B8 was tested, and the “TEER compared to JO-1” value [1] was “significantly higher”.

B9: JO-2: affinity enhanced version of JO-1; printed Y293D, Kd fits V239D; b41 links JO-2 to K217E/F224S (protein)
chain: MKVSALKEKVSALKEKVSALKEKVSALKEKVSALKEGSGGGSGGGSGGGSNSIALKNNTLWTGPKPEANCIIEYGKQNPDSKLTLILVKNGGIVNGYVTLMGASDYVNTLFKNKNVSINVELYFDATGHILPDSSSLKTDLELKYKQTADFSARGFMPSTTAYPFDLPNAGTHNENYIFGQCYYKASDGALFPLEVTVMLNKRLPDSRTSYVMTFLWSLNAGLAPETTQATLITSPFTFSYIREDD
For B9, the “TEER compared to JO-1” value [1] was “significantly higher” and the “Enhancement of irinotecan therapy” value (A549 xenograft tumors) was “increased irinotecan therapy significantly more than JO-1; also recorded: significant from day 20 on”.
